Assay [1] addresses manY component of the mannose permease complex (E. coli) (UniProt P69801).
Assay [2] addresses manZ component of the mannose permease complex (E. coli) (UniProt P69805).

Regarding Lambda gpH (Uniprot P03736), the apparent titer of packaged phagemids in MG1655 and KEIO manY (log decrease in the apparent titer) in assay [1] came to 2. In assay [2], the apparent titer of packaged phagemids in MG1655 and KEIO manZ (log decrease in the apparent titer) was 2.

The values above are taken from US20210196828A1.
